In PMC3538076:
“And” between values parts separate entries of the source, which are not always exact repeats. Equal values may be shown once. Read-outs that look alike come from different tables or passages of the source.

Key:
[1] = biological target: H3–H4 complex with H3 labeled with Cy3 at Gln-125 (H3 C110A) (Xenopus laevis) (UniProt P84233); experiment: fluorescence polarisation
[2] = biological target: gH3–gH4 heterodimer (globular forms of histones H3 and H4) (Xenopus laevis) (UniProt P84233); experiment: SEC
[3] = biological target: H3–H4 complex with H3 labeled with Cy3 at Gln-125 (H3 C110A) (Xenopus laevis) (UniProt P84233); experiment: fluorescence polarisation; remark: listed apart in the source
[4] = biological target: RbAp48–H3–H4 complex, labeled with Cy3 at Gln-125 on H3 (human | Xenopus laevis) (UniProt Q09028); experiment: fluorescence polarisation
[5] = biological target: H3–H4 complex with H3 labeled with Cy3 at Leu-65 (H3 C110A) (Xenopus laevis) (UniProt P84233); experiment: fluorescence polarisation

| Kd [1] [nM] | stoichiometry N (ASF1^1-159 : gH3–gH4) [2] | Kd [3] [nM] | Kd [4] | Kd [5] [nM] | Substance |
| --- | --- | --- | --- | --- | --- |
| 0.27 | 1 | 0.3 | 7.1 nM and 3 nM and 6.8 nM | – | human ASF1^1-159 (anti-silencing function protein 1, residues 1-159) (from UniProt Q9Y294 1-159) (domain or fragment) |
| – | – | – | – | 0.61 | human retinoblastoma-associated protein RbAp48 (from UniProt Q09028 1-425) (natural protein) |
